Substitutions are numbered along the chain they refer to.

To fix the notation:
B1: RBD-chAb-1 (antibody, V domains shown)
VH: EVQLQQSGPQLVRPGASMKISCKASGYSFTTYWMHWVKQRPGQGLQWIGMIDPSDSETRLNQKFKDKATLTVDKSSSTAYMQLSSPTSEDSAVYYCARDFDYDRTMDYWGQGTSVTVSS
VL: DIVMSQSPSSLAVSVGEKVTMSCKSSQSLLFSSSQKNYLAWYQQKAGQSPKLLIFWASTRESGVPDRFTGSGSGTDFTLTISSVKAEDLAIYYCKQYYKYPLTFGAGTKLDIK
B2: RBD-chAb-15 (antibody, V domains shown)
VH: EVQLEESGPGLVQPSQSLSITCTVSDFSLTTYGVHWVRQSPGKGLEWLGVIWSGGSTDYNAAFISRLSISKDNSKSQVFFKMNSLQTNDTAIYYCARMGDGYYVGAMDYWGQGTSVTVSS
VL: DIQLTQSPAILSVSPGERVSFSCRASQSIGTSIHWYQQRTNGSPRHLIKYASESISGIPSRFSGSGSGTDFTLTINGVESEDIADYYCQQGHNWPLTFGAGTKLDIK
B3: RBD-chAb-45 (antibody, V domains shown)
VH: EVQLQQSGPELVKPGASVKISCKTSGYTFTEYTIYWVKQSLGKSLEWIGGNNPNNDDTTYKQFFKGKATLTVDKSSSTAYMELRSLTSEDSAVYYCARDGYPYYYALDFWGQGTSVTVSS
VL: DILMTQSQKFMSTSVGDRVSVTCKSSQNVGTNVAWYQQKPGQSPKALIYSASYRYSGVPDHFTGSGSGTDFTLTISNVQSADLAEYFCQQYNNYPWTFGGGTKLDIK
B4: RBD-chAb-51 (antibody, V domains shown)
VH: B3 VH with V18A, I34M, L41H, N51I, D56G, K61N, F63T, Y103F, F109Y, T114I
VL: DIVMTQSQKFMSTSVGDRVSVTCKARQIVGTNVAWYQQKPGQSPKALIYSASYRYSGVPDRFTGSGSGTDFTLTITNVHSEDLAEFFCHQYNSYPWTFGGGTKLDIK
B5: RBD-chAb-28 (antibody, V domains shown)
VH: QVQLQQPGTELVMPGASVKMSCKASGYTFTDYYLHWMKQRPGQGLEWIGAIDSSDSYTDYNQNFKGKATLTVDESSSTAYMHLSSLTSEDSAVYYCARGKDAYDRRPWFAYWGQGTLVTVSA
VL: DIQMTQTTSSLSASLGDRVTISCSASQGIRYYLNWYQQKPDGTVKLLIYYTSNLHSGVPSRFSGSGSGTDYSLTISNLEPEDIATYYCQQYNKLPYTFGGGTKLDIK

Substrate in one assay: S protein of SARS-CoV-2 variant B.1.1.7 (UK, Alpha), full length, on pseudovirus or authentic virus (SARS-CoV-2), P0DTC2
Nature of the assay: cell-based or functional assay.
For the molecule B1, the SARS-CoV2 pseudovirus IC50 amounted to 33.5 ng/mL.
For B2, the PRNT50 was 58.1 ng/mL and the SARS-CoV2 pseudovirus IC50 amounted to 39.7 ng/mL.
For B3, the PRNT50 was determined as 5.29 ng/mL and the SARS-CoV2 pseudovirus IC50 turned out to be 2.06 ng/mL.
Regarding B4, the PRNT50 is 6.39 ng/mL and the SARS-CoV2 pseudovirus IC50 amounted to 3.07 ng/mL.
The like results for B5 were, in that order, 58.5 ng/mL and 11.3 ng/mL.

Substrate in a further assay: S protein of SARS-CoV-2 variant B.1.351 (SA, Beta), full length, on pseudovirus (SARS-CoV-2), P0DTC2
Nature of the assay: cell-based or functional assay.
As for B1, the SARS-CoV2 pseudovirus IC50 was determined as 46.7 ng/mL.
The same measure, in the same setting: then B2, with 30.1 ng/mL.
With B3, the SARS-CoV2 pseudovirus IC50 was found to be 2.68 ng/mL.
As to B4, the SARS-CoV2 pseudovirus IC50 was determined as 1.26 ng/mL.
As to B5, the SARS-CoV2 pseudovirus IC50 was determined as 16.5 ng/mL.

Substrate in the next assay: S protein of SARS-CoV-2 variant P1 (Brazil, Gamma), full length, on pseudovirus or authentic virus (SARS-CoV-2), P0DTC2
Put plainly: cell-based or functional assay.
Consider B1, for which the SARS-CoV2 pseudovirus IC50 came out at 17.1 ng/mL.
In the case of B2, the PRNT50 was 50.9 ng/mL and the SARS-CoV2 pseudovirus IC50 worked out at 7.18 ng/mL.
On to B3, for which the PRNT50 was found to be 3.26 ng/mL and the SARS-CoV2 pseudovirus IC50 turned out to be 0.76 ng/mL.
Take B4: the PRNT50 worked out at 2.92 ng/mL and the SARS-CoV2 pseudovirus IC50 was found to be 0.7 ng/mL.
On to B5, for which the PRNT50 was 58.3 ng/mL and the SARS-CoV2 pseudovirus IC50 stood at 4.18 ng/mL.

The record behind these values is patent US20250270296A1.
